Results reported in publication PMC4380140 (Journal of biomolecular screening, 2012).

B1: ectodomain ephrinB3 (ed-ephrinB3), amino acids 28-227 of mouse ephrinB3 extracellular domain (domain or fragment, UniProt O35393 28-227, looked up)
chain: LSLEPVYWNSANKRFQAEGGYVLYPQIGDRLDLLCPRARPPGPHSSPSYEFYKLYLVEGAQGRRCEAPPAPNLLLTCDRPDLDLRFTIKFQEYSPNLWGHEFRSHHDYYIIATSDGTREGLESLQGGVCLTRGMKVLLRVGQSPRGGAVPRKPVSEMPMERDRGAAHSAEPGRDTIPGDPSSNATSRGAEGPLPPPSMPA
B2: ectodomain ephrinB1 (ed-ephrinB1), amino acids 26-236 of mouse ephrinB1 extracellular domain (domain or fragment, UniProt P52795 26-236, looked up)
chain: TPLAKNLEPVSWSSLNPKFLSGKGLVIYPKIGDKLDIICPRAEAGRPYEYYKLYLVRPEQAAACSTVLDPNVLVTCNKPHQEIRFTIKFQEFSPNYMGLEFKKYHDYYITSTSNGSLEGLENREGGVCRTRTMKIVMKVGQDPNAVTPEQLTTSRPSKESDNTVKTATQAPGRGSQGDSDGKHETVNQEEKSGPGAGGGGSGDSDSFFNSK

Experiments:
dynamic light scattering = target: the molecule itself; assay: dynamic light scattering
SEC = target: the molecule itself; assay: SEC

| Protein | stoichiometry N (dynamic light scattering) [monomers per particle] | binding result (SEC) |
| --- | --- | --- |
| B1 | 104 |  |
| B2 |  | binds |
